Legend:
Sp1 [1] = target: T1, Sp1 (UniProt P08047 P08047:2-785); assay: competition; competes with 32P ds 28b oligo; about 70-100 molar excess; settings: tags: Promega purified Sp1
Experimental: (§1) In an effort to restrict the precise Sp1 binding region in 28b to the G-rich motif in the CD28 promoter region –197 to +28, we synthesized a double stranded (ds) 30mer oligo called 28b oligo (Seq #1 Table 1) which contains the 12mer GGGGAGGAGGGG within its sequence. We hypothesized that this was a Sp1 binding site in the CD28 promoter region. Following 32P-labeling, 28b oligo was incubated with Sp1 extract and indeed they bind to each other (FIG. 5, band A, lane 2 and 3). Competition with cold ds 28b oligo caused the band to disappear showing indeed that the binding was specific to Sp1 (lane 4). […] The consequence of this interaction is the prevention of Sp1 binding to the Sp1 site at –51 to –22 in the promoter region and which inhibits Sp1-mediated transcription of the CD28 gene and decreases expression of the mature CD28 protein.

Sp1 [2] = target: T1, Sp1; assay: EMSA; band A; competed by cold ds 28b oligo; room temperature; settings: tags: Promega purified Sp1; label: 32P
Experimental: as §1

Sp1 [3] = target: T1, Sp1; assay: competition; control oligo did not compete; about 70-100 molar excess; settings: tags: Promega purified Sp1
Experimental: as §1

T1 sequence (P08047 2-785, one chain of several): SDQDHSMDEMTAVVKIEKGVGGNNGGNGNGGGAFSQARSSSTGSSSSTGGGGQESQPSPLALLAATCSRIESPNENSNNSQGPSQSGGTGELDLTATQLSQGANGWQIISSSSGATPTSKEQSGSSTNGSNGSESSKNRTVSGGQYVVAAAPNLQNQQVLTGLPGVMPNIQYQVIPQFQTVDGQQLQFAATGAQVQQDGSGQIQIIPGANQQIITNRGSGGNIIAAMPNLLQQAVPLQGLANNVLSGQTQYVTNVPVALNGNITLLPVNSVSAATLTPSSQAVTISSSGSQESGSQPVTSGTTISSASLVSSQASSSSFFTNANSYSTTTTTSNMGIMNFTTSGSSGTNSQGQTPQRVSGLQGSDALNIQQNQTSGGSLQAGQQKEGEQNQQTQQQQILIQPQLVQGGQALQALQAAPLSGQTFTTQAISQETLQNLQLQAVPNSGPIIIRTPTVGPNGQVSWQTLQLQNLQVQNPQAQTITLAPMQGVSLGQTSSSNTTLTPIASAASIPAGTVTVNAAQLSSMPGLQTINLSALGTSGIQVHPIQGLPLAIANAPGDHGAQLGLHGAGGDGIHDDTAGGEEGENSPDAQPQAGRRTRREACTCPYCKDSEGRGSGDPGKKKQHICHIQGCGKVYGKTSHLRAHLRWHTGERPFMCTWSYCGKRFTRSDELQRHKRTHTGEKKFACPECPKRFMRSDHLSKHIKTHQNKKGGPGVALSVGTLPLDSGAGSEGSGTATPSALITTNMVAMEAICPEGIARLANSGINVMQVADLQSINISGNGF

Binder	binding result (Sp1 [1])	also measured
GGGGAGGAGGGGCTGGAA (ssDNA, PS all linkages) [ICN 16481]	binds	–
28b oligo (-51 to -22) (dsDNA) DNA 1: GGGTTCCTCGGGGAGGAGGGGCTGGAACCC DNA 2: GGGTTCCAGCCCCTCCTCCCCGAGGAACCC	–	binding result (Sp1 [2]): binds
TTCCAGCCCCTCCTCCCC (ssDNA, PS all linkages) [ICN 16476]	–	binding result (Sp1 [3]): no binding
TTGGAGGGGGTGGTGGGG (ssDNA, PS all linkages) [ICN 16064]	binds	–

Reference: patent US6994959, “G-rich oligo aptamers and methods of modulating an immune response” (Valeant Research & Development)
